The source of these data is US20240368302A1 (NANOMAB TECHNOLOGY, published 2024).

Test [1] concerns the target T1, Fc antigen protein of human TROP2 domains TY-1 + CPD (human, UniProt P09758 70-274, limits assumed).
T1 construct: domain: TY-1 + CPD; not shown: Fc
T1 sequence (looked up): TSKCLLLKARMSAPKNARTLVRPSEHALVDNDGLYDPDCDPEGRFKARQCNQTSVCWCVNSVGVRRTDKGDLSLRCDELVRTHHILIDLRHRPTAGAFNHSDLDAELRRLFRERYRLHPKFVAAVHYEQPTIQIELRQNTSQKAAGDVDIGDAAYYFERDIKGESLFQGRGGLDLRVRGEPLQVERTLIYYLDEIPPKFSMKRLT
The experiment in a line: ELISA, coated Fc protein of human TROP2 TY-1 + CPD, Kd calculated from absorbance. On the procedure: (§1) The ELISA plates were coated with Fc antigen proteins of different human TROP2 domains overnight at 4° C. The plates were washed for 4 times with PBS-T the next day, added with 1% BSA, and blocked at room temperature for 2 hours. The plates were washed for 4 times with PBS-T, added with the anti-TROP2 single domain antibodies diluted in gradient, and standing at 37° C. for 1 hour. The plates were washed for 4 times with PBS-T, added with mouse anti-His-HRP antibody, and standing at 37° C. for 1 hour. The plates were washed for 4 times with PBS-T, added with TMB soluble substrate, and standing at room temperature for 10 minutes. […] The anti-TROP2 single domain antibodies of the present invention bind to different TROP2 domains.

Test [2] has as its target T2, human TROP2-Fc protein antigen (human, UniProt P09758 27-274).
T2 construct: extracellular domain; also called CRD + TY-1 + CPD; not shown: IgG Fc of the pFUSE-IgG plasmid
T2 sequence (looked up): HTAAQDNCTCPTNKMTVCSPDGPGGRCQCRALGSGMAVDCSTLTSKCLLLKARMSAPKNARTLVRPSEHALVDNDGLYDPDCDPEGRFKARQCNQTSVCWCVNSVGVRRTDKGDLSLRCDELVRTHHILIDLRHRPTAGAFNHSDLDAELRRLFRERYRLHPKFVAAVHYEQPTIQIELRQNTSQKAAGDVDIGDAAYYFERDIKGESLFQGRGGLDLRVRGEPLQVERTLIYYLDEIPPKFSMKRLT
The experiment in a line: ELISA, coated Fc protein of human TROP2 CRD + TY-1 + CPD, Kd calculated from absorbance. On the procedure: as §1

Test [3] deals with T2, human TROP2-Fc protein antigen. The experiment in a line: SPR (Biacore 8K), human TROP2-Fc on CM-5 chip, VHH in flow. On the procedure:
The fixed phase human TROP2-Fc antigen proteins were fixed on the surface of CM-5 sensing chip using carboxyl amino reaction. The anti-TROP2 single domain antibodies were diluted with HBS buffer to different concentrations, and the anti-TROP2 single domain antibodies were added at a flow rate of 30 μl/min, binding for 90 seconds, dissociating for 600 seconds, and the binding process between the anti-TROP2 single domain antibody and the antigen was observed. After rinsing with 10 mM glycine solution for chip regeneration, the next anti TROP2 single domain antibody assay was proceeded.

For test [4], the target named is T3, rhesus monkey TROP2-Fc antigen protein (rhesus monkey, UniProt A0A5F8AGB8 27-274).
T3 construct: not shown: Fc
T3 sequence: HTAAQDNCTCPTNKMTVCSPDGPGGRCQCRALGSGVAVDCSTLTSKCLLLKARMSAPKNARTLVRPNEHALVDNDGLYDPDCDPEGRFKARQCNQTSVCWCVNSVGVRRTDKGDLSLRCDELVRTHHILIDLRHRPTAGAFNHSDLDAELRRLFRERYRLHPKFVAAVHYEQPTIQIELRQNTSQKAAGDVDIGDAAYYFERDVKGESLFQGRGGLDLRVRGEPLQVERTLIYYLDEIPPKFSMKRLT
The experiment in a line: ELISA, coated rhesus monkey TROP2-Fc, Kd calculated from absorbance. On the procedure:
The ELISA plates were coated with TROP2-Fc antigen proteins from human, mouse, and rhesus monkey overnight at 4° C. The plates were washed for 4 times with PBS-T the next day, added with 1% BSA, and blocked at room temperature for 2 hours. The plates were washed for 4 times with PBS-T, added with the anti-TROP2 single domain antibodies diluted in gradient, and standing at 37° C. for 1 hour. The plates were washed for 4 times with PBS-T, added with mouse anti-His-HRP antibody, and standing at 37° C. for 1 hour. The plates were washed for 4 times with PBS-T, added with TMB soluble substrate, and standing at room temperature for 10 minutes.

Test [5] concerns the target T4, mouse TROP2-Fc antigen protein (mouse, UniProt Q8BGV3 25-270, limits assumed).
T4 construct: not shown: Fc
T4 sequence (looked up): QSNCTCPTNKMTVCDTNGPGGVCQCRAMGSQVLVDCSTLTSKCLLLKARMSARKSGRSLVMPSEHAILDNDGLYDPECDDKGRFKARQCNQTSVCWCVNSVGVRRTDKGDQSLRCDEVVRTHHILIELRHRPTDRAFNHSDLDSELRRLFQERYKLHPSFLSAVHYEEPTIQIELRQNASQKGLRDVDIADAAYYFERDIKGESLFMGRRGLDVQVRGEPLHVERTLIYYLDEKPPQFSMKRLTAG
The experiment in a line: ELISA, plate coated with mouse TROP2-Fc.

The target of test [6] is T2, human TROP2-Fc protein antigen. The experiment in a line: ELISA, coated human TROP2-Fc, Kd calculated from absorbance.
Test [7] addresses T5, Fc antigen protein of human TROP2 domain CPD (human, UniProt P09758 146-274, limits assumed).
T5 construct: domain: CPD; not shown: Fc
T5 sequence (looked up): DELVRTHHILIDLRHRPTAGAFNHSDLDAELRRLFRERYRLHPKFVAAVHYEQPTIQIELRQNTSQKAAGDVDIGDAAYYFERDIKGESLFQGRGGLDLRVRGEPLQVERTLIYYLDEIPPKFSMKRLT
As to the kind of experiment: ELISA, coated Fc protein of human TROP2 CPD, Kd calculated from absorbance. The protocol:
as §1

B1: MY1530-6-1 (VHH)
VHH: QVQLQESGGGSVQAGGSLRLSCAASGFPYSSYSMGWFRQAPGKEREGVAAIYTGGGSTYYAGSVKGRFTISQEHATNTLYLQMNSLKPEDTAMYYCAANMVDNGVISGIQALGVRYYNYWGQGTQVTVSS
notes: Expressed in E. coli WK6 from vector pMECS, purified on a nickel column; also called MY1530-6-1 VHH; anti-TROP2 single domain antibody
Turning to B1, the dissociation constant (Kd) in test [1] was 2.14 nM; in test [2] it was 1.51 nM; in test [3], 0.21 nM; in test [4], 4.47 nM; in test [6], 1.51 nM. Further, in test [3], the koff turned out to be 0.000227 s⁻¹. This molecule returned a kon in test [3] of 1.09e+06 M⁻¹ s⁻¹. In addition, the binding result in test [5] is “no binding”.

B2: MY1530-1-20 (VHH)
VHH: QVQLQESGGGSVLAGGSLRLSCTVSGSFVSSRSMAWFRQTPGKEREGVAAISQYGDPKYAGSVKGRFTMSRDNAKNTLLLQMNSLKPEDTAIYYCAAGEAWELATLSRSDYIYWGQGTQVTVSS
notes: Expressed in E. coli WK6 from vector pMECS, purified on a nickel column; also called MY1530-1-20 VHH; anti-TROP2 single domain antibody
B2: the Kd was 1.13 nM in test [2], 0.35 nM in test [3], 2.33 nM in test [4] and 1.13 nM in test [6]. This molecule came in with a koff in test [3] of 0.000179 s⁻¹. This molecule also had a kon in test [3] of 509000 M⁻¹ s⁻¹. Moreover, the binding result in test [5] is “no binding”.

B3: MY1530-5-17 (VHH)
VHH: QVQLQESGGGSVQPGGSLRLSCVVSGYTVSSVCMAWFRQAPGMERELVAGFYHSGGTYYGDSVKGRFTASQDNAKNTLYLQMNSLKPEDTATYYCARARYPSSACGTSPSNYNIWGQGTQVTVSS
notes: Expressed in E. coli WK6 from vector pMECS, purified on a nickel column; also called MY1530-5-17 VHH; anti-TROP2 single domain antibody
In the case of B3, the Kd is 0.53 nM in test [1]; 1.39 nM in test [2]; 0.27 nM in test [3]; 1.78 nM in test [4]; 0.53 nM in test [7]; 1.39 nM in test [6]. Also, the off-rate (koff) in test [3] amounted to 0.00011 s⁻¹. The molecule also came in with a kon in test [3] of 405000 M⁻¹ s⁻¹. Further, in test [5], the binding result was “no binding”.

B4: MY1530-4-22 (VHH)
VHH: QVQLQESGGGSVQAGGSLKLSCVVSGYTVSSVCMAWFRQAPGMERELVAGFYHSGGTYYGDSVKGRFTASQDNAKNTLYLQMNSLKPEDTATYYCARARYPSSACGTSPSNYNIWGQGTQVTVSS
notes: Expressed in E. coli WK6 from vector pMECS, purified on a nickel column; also called MY1530-4-22 VHH; anti-TROP2 single domain antibody
For B4, the Kd in test [1] is 0.53 nM; in test [2], 1.29 nM; in test [3], 0.73 nM; in test [4], 1.67 nM; in test [7] it was 1.02 nM; in test [6], 1.29 nM. Moreover, the koff in test [3] was determined as 0.000187 s⁻¹. For the same molecule, in test [3], the kon is 257000 M⁻¹ s⁻¹. Moreover, the binding result in test [5] is “no binding”.

B5: MY1530-5-54 (VHH)
VHH: QVQLQESGGGSVQPGGSLRLSCVASGYTASSVCMAWFRQAPGKERELVAGYYHSGGTYYGDSVKGRFTASQDNAKNTLYLQMNSLKPEDTATYYCARARYPSSACGTSPSNYNIWGQGTQVTVSS
notes: Expressed in E. coli WK6 from vector pMECS, purified on a nickel column; also called MY1530-5-54 VHH; anti-TROP2 single domain antibody
On to B5, for which the Kd is 0.53 nM in test [1]; 1.28 nM in test [2]; 0.2 nM in test [3]; 1.73 nM in test [4]; 0.53 nM in test [7]; 1.28 nM in test [6]. Further, the koff in test [3] was found to be 8.99e-05 s⁻¹. The on-rate constant (kon) in test [3] turned out to be 449000 M⁻¹ s⁻¹. In addition, in test [5], the binding result is given as “no binding”.

B6: MY1530-2-53 (VHH)
VHH: QVQLQESGGGSVQAGGSLRLSCAVSGLTSSTTCMGWFRQAPGKEREGVAVIRSSGETTAADSVKGRFTISRDNAKNTLSLQMTSLKPEDTAMYYCAAAWPYSGCLLPLSSGDFTYWGQGTQVTVSS
notes: Expressed in E. coli WK6 from vector pMECS, purified on a nickel column; also called MY1530-2-53 VHH; anti-TROP2 single domain antibody
For the molecule B6, the Kd in test [2] was 4.23 nM; in test [3], 9.83 nM; in test [4] it was 28.1 nM; in test [6], 4.23 nM. Besides, the koff in test [3] was found to be 0.00443 s⁻¹. In test [3], this molecule showed a kon of 451000 M⁻¹ s⁻¹. In addition, in test [5], the binding result is “no binding”.

B7: MY1530-1-26 (VHH)
VHH: QVQLQESGGGSVQAGGSLRLSCVVSGYTTTRYSMAWFRQAPGKEREGVAGIDTDVLTTYKPSVEGRFTISRDSAKRTLYLQMNSLKPEDTAMYYCATGTGNFLALDPVWYNTWGQGTQVTVSS
notes: Expressed in E. coli WK6 from vector pMECS, purified on a nickel column; also called MY1530-1-26 VHH; anti-TROP2 single domain antibody
For B7, the Kd is 4.86 nM in test [2], 1.89 nM in test [3], 29.4 nM in test [4] and 4.86 nM in test [6]. The same molecule returned a koff in test [3] of 0.00304 s⁻¹. Also, the kon in test [3] came to 1.61e+06 M⁻¹ s⁻¹. In addition, the binding result in test [5] is “no binding”.

B8: MY1530-4-28 (VHH)
VHH: QVQLQESGGGSVQAGGSLRLSCAASGFSVSTTWMHWVRQAPGKGLEWVSRIAINDHTFYAESVKGRFTMSTDNAKNTVYLQMTSLKPEDTAVYYCSPYSDYRIRGQGTQVTVSS
notes: Expressed in E. coli WK6 from vector pMECS, purified on a nickel column; also called MY1530-4-28 VHH; anti-TROP2 single domain antibody
On to B8, for which the Kd was 1.2 nM in test [2], 4.89 nM in test [3], 1.38 nM in test [4] and 1.2 nM in test [6]. The koff in test [3] is 0.000717 s⁻¹. The same molecule gave a kon in test [3] of 147000 M⁻¹ s⁻¹. Besides, the binding result in test [5] is given as “no binding”.
